Measured values reported in article PMC3678163.

Target: poly-SUMO2 chains (3–8) (UniProt P61956)
Assay: SPR

Chain of UniProt P61956 (P61956 whole entry): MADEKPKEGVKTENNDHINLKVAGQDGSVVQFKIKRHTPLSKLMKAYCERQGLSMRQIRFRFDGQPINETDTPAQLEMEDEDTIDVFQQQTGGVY

Kd: 15 µM
B1: RNF111(282–411) fragment, wild type (domain or fragment)
chain: SENHQNNPAVPSGSIDEDVVVIEASSTPQVTANEEINVTSTDSEVEIVTVGESYRSRSTLGHSRSHWSQGSSSHASRPQEPRNRSRISTVIQPLRQNAAEVVDLTVDEDEPTVVPTTSARMESQATSASI
